According to article PMC6955313 (Proceedings of the National Academy of Sciences of the …, 2019):

Target: the molecule itself
Experiment: time-resolved SAXS/diffraction

B1: RsaA_(Full-Length), the 98-kDa surface-layer protein (SLP) from Caulobacter crescentus (natural protein)
chain: MAYTTAQLVTAYTNANLGKAPDAATTLTLDAYATQTQTGGLSDAAALTNTLKLVNSTTAVAIQTYQFFTGVAPSAAGLDFLVDSTTNTNDLNDAYYSKFAQENRFINFSINLATGAGAGATAFAAAYTGVSYAQTVATAYDKIIGNAVATAAGVDVAAAVAFLSRQANIDYLTAFVRANTPFTAAADIDLAVKAALIGTILNAATVSGIGGYATATAAMINDLSDGALSTDNAAGVNLFTAYPSSGVSGSTLSLTTGTDTLTGTANNDTFVAGEVAGAATLTVGDTLSGGAGTDVLNWVQAAAVTALPTGVTISGIETMNVTSGAAITLNTSSGVTGLTALNTNTSGAAQTVTAGAGQNLTATTAAQAANNVAVDGGANVTVASTGVTSGTTTVGANSAASGTVSVSVANSSTTTTGAIAVTGGTAVTVAQTAGNAVNTTLTQADVTVTGNSSTTAVTVTQTAAATAGATVAGRVNGAVTITDSAAASATTAGKIATVTLGSFGAATIDSSALTTVNLSGTGTSLGIGRGALTATPTANTLTLNVNGLTTTGAITDSEAAADDGFTTINIAGSTASSTIASLVAADATTLNISGDARVTITSHTAAALTGITVTNSVGATLGAELATGLVFTGGAGADSILLGATTKAIVMGAGDDTVTVSSATLGAGGSVNGGDGTDVLVANVNGSSFSADPAFGGFETLRVAGAAAQGSHNANGFTALQLGATAGATTFTNVAVNVGLTVLAAPTGTTTVTLANATGTSDVFNLTLSSSAALAAGTVALAGVETVNIAATDTNTTAHVDTLTLQATSAKSIVVTGNAGLNLTNTGNTAVTSFDASAVTGTGSAVTFVSANTTVGEVVTIRGGAGADSLTGSATANDTIIGGAGADTLVYTGGTDTFTGGTGADIFDINAIGTSTAFVTITDAAVGDKLDLVGISTNGAIADGAFGAAVTLGAAATLAQYLDAAAAGDGSGTSVAKWFQFGGDTYVVVDSSAGATFVSGADAVIKLTGLVTLTTSAFATEVLTLA
**Q.** Does B1 bind?
**A.** binds
